Reference: the RNAGym collection of RNA variant scans (doi:10.1021/acssynbio.7b00057)

B1: Pistol ribozyme (parent)
chain: GGGUCGUUGUUCCAUAAUCGCGUGGAUAUGGCACGCAAGUUUCUACCGGGCACCGUAAAUGUCCGACUGGAGCCGUUCGGGCGGCUAUAAACAGACCUCAGGCCCGAAGCGUGGCGGCACCUGCCGCCGGUGGUAAAAAAGAUCGGAAGAGCACACGUCU

Variants of: B1
Assay: aptazyme ON/OFF ratio, guanine; higher = stronger switching; co-transcriptional cleavage with and without guanine

Variant | aptazyme ON/OFF ratio
U7A G9U U11A C12A C13U | 1.19
U7A G9U U11A C12A C13G | 1.16
U7A G9U U11A C12A C13A | 1.39
U7A G9C U11G C13G | 1.07
U7A G9C U11G C13U | 1.25
U7A G9C U11G C13A | 1.13
U7A G9U U10A U11A C12G | 1.26
U7A G9U U10A U11A C12U | 1.28
U7A G9U U10A U11A C12A | 1.43
U7A G9U U10G U11G C12G | 1.43
U7A G9U U10G U11G C12A | 1.13
U7A G9U U10G U11G C12U | 1.16
U7A G9U U10C U11C C12U C13U | 1.07
U7A G9U U10C U11C C12U C13A | 1.06
U7A G9U U10C U11C C12U C13G | 1.02
U7A G9C U11G C12G | 1.36
U7A G9C U11G C12U | 1.57
U7A G9C U11G C12A | 1.19
U7A G9U U11C | 1.15
U7A G9U U11G | 1.36
U7A G9U U11A | 1.27
U7A G9U U10C | 2.35
U7A G9U U10G | 1.75
U7A G9U U10A | 1.4

Variant | aptazyme ON/OFF ratio
U7A G9U C12U C13U | 1.21
U7A G9U C12U C13G | 1.16
U7A G9U C12U C13A | 1.19
U7A G9U U10G C12G C13U | 1.25
U7A G9U U10G C12G C13G | 1.25
U7A G9U U10G C12G C13A | 1.18
U7A G9U U11C C12U C13U | 1.26
U7A G9U U11C C12U C13G | 1.1
U7A G9U U11C C12U C13A | 1.2
U7A G9C U11A C12A | 1.07
U7A G9C U11A C12G | 1.08
U7A G9C U11A C12U | 1.09
U7A G9U U10G U11C C12G C13G | 1.17
U7A G9U U10G U11C C12G C13A | 1.15
U7A G9U U10G U11C C12G C13U | 1.31
U7A G9C U10G U11G C12G C13U | 1.16
U7A G9C U10G U11G C12G C13A | 1.14
U7A G9C U10G U11G C12G C13G | 1.13
U7A G9C U11C C13G | 1.04
U7A G9C U11C C13U | 1.02
U7A G9C U11C C13A | 1.04
U7A G9U U10A U11C | 1.02
U7A G9U U10A U11A | 1.43
U7A G9U U10A U11G | 1.31

Variant | aptazyme ON/OFF ratio
U7A G9U U10G C13G | 1.14
U7A G9U U10G C13A | 1.33
U7A G9U U10G C13U | 1.54
U7A G9U U11G C12A C13U | 1.22
U7A G9U U11G C12A C13A | 1.18
U7A G9U U11G C12A C13G | 1.36
U7A G9U U11A C12G C13A | 1.08
U7A G9U U11A C12G C13G | 1.12
U7A G9U U11A C12G C13U | 1.25
U7A G9U U10C C13G | 1.02
U7A G9U U10C C13U | 1.18
U7A G9U U10C C13A | 1.09
U7A G9U U11A C12U C13A | 1.41
U7A G9U U11A C12U C13G | 1.28
U7A G9U U11A C12U C13U | 1.22
U7A G9U U10G U11C C12U | 1.06
U7A G9U U10G U11C C12A | 1.21
U7A G9U U10G U11C C12G | 1.21
U7A G9C U11G C12U C13U | 1.32
U7A G9C U11G C12U C13G | 1.36
U7A G9C U11G C12U C13A | 1.42
U7A G9U U10C U11C C12G C13U | 1.01
U7A G9U U10C U11C C12G C13A | 1.02
U7A G9U U10C U11C C12G C13G | 1.04

Variant | aptazyme ON/OFF ratio
U7A G9U U10C U11A C12U C13A | 1.23
U7A G9U U10C U11A C12U C13U | 1.22
U7A G9U U10C U11A C12U C13G | 1.2
U7A G9U U11A C13A | 1.12
U7A G9U U11A C13U | 1.1
U7A G9U U11A C13G | 1.08
U7A G9U U10A U11C C12U C13U | 1.18
U7A G9U U10A U11C C12U C13A | 1.23
U7A G9U U10A U11C C12U C13G | 1.12
U7A G9U U11C C12G C13U | 1.12
U7A G9U U11C C12G C13G | 1.12
U7A G9U U11C C12G C13A | 1.11
U7A G9U U10A U11G C13G | 1.07
U7A G9U U10A U11G C13A | 1.11
U7A G9U U10A U11G C13U | 1.21
U7A G9U U10A U11A C12G C13U | 1.19
U7A G9U U10A U11A C12G C13G | 1.25
U7A G9U U10A U11A C12G C13A | 1.11
U7A G9U U10G C12A C13G | 1.13
U7A G9U U10G C12A C13U | 1.3
U7A G9U U10G C12A C13A | 1.16
U7A G9U U10C U11G C13U | 1.2
U7A G9U U10C U11G C13G | 1.09
U7A G9U U10C U11G C13A | 1.13

Variant | aptazyme ON/OFF ratio
U7A G9U U10A C12U | 1.22
U7A G9U U10A C12A | 1.47
U7A G9U U10A C12G | 1.28
U7A G9U U10C U11G C12G C13U | 1.11
U7A G9U U10C U11G C12G C13G | 1.16
U7A G9U U10C U11G C12G C13A | 1.14
U7A G9U C12A C13A | 1.27
U7A G9U C12A C13U | 1.28
U7A G9U C12A C13G | 1.21
U7A G9U U10C U11G C12A C13G | 1.2
U7A G9U U10C U11G C12A C13U | 1.11
U7A G9U U10C U11G C12A C13A | 1.05
U7A G9C U11A | 1.11
U7A G9C U11G | 1.41
U7A G9C U11C | 1.07
U7A G9U U11C C12G | 1.18
U7A G9U U11C C12A | 1.34
U7A G9U U11C C12U | 1.16
U7A G9U U10G U11A C12U C13G | 1.16
U7A G9U U10G U11A C12U C13U | 1.26
U7A G9U U10G U11A C12U C13A | 1.16
U7A G9C U11C C12U C13G | 1.12
U7A G9C U11C C12U C13A | 1.04
U7A G9C U11C C12U C13U | 1.16

Variant | aptazyme ON/OFF ratio
U7A G9U U10G U11G C13G | 1.17
U7A G9U U10G U11G C13A | 1.22
U7A G9U U10G U11G C13U | 1.11
U7A G9U U10G U11A C13A | 1.09
U7A G9U U10G U11A C13U | 1.05
U7A G9U U10G U11A C13G | 1.08
U7A G9C U10G U11G | 1.06
U7A G9C U10G U11C | 1.03
U7A G9U C12G C13A | 1.2
U7A G9U C12G C13G | 1.3
U7A G9U C12G C13U | 1.3
U7A G9U U10A C12A C13U | 1.19
U7A G9U U10A C12A C13A | 1.1
U7A G9U U10A C12A C13G | 1.07
U7A G9U U10C U11A C12G C13U | 1.12
U7A G9U U10C U11A C12G C13G | 1.14
U7A G9U U10C U11A C12G C13A | 1.13
U7A G9U U10C U11C C13A | 1.01
U7A G9U U10C U11C C13U | 1.02
U7A G9U U10C U11C C13G | 1.04
U7A G9U U10A C13G | 1.05
U7A G9U U10A C13A | 1.08
U7A G9U U10A C13U | 1.35
U7A G9U U10G U11C C12A C13A | 1.14

Variant | aptazyme ON/OFF ratio
U7A G9U U10G U11C C12A C13U | 1.24
U7A G9U U10G U11C C12A C13G | 1.12
U7A G9U U10G U11A C12G C13A | 1.41
U7A G9U U10G U11A C12G C13U | 1.31
U7A G9U U10G U11A C12G C13G | 1.21
U7A G9U U11G C12G C13A | 1.26
U7A G9U U11G C12G C13G | 1.32
U7A G9C U11C C12U | 1.09
U7A G9C U11C C12G | 1.06
U7A G9C U11C C12A | 1.09
U7A G9C U11A C12A C13U | 1.11
U7A G9C U11A C12A C13A | 1.03
U7A G9C U11A C12A C13G | 1.05
U7A G9U | 1.86
U7A G9U U10C C12U C13G | 1.07
U7A G9U U10C C12U C13A | 1.14
U7A G9U U10C C12U C13U | 1.2
U7A G9C U11A C12G C13G | 1.08
U7A G9C U11A C12G C13A | 1.04
U7A G9C U11A C12G C13U | 1.08
U7A G9U U10G U11A C12A | 1.2
U7A G9U U10G U11A C12G | 1.33
U7A G9U U10G U11A C12U | 1.06
